In patent publication US20260224723A1, “ANTI-B7H3 ANTIBODY-DRUG CONJUGATE AND USE THEREOF” (Duality Biologics (Suzhou) Co., Ltd., priority 2022, published 2026):

What was measured:
human B7H3 = molecular target: T1, human B7H3 (Homo sapiens, UniProt Q5ZPR3); assay: FACS binding to human B7H3-expressing cells MCF-7
T1 construct: MCF-7 cells expressing human full-length B7H3; host or cells: MCF-7
T1 sequence (Q5ZPR3 29-534): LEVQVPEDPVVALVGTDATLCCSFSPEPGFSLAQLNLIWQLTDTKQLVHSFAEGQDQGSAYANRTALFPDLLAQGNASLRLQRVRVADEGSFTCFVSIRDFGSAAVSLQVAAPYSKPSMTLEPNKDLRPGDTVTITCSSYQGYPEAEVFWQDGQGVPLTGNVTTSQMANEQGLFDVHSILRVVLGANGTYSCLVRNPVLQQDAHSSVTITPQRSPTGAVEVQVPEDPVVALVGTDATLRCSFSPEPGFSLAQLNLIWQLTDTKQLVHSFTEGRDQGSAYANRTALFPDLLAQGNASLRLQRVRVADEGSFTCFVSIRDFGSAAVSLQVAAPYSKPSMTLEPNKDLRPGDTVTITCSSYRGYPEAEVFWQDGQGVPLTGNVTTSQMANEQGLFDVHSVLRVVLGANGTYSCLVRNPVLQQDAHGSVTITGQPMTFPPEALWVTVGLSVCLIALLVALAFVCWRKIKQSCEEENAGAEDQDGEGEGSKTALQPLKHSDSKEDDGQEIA
Description: FACS was used to detect the binding of antibodies to human B7H3. This method allows quantitative analysis and identification of specific molecules expressed on the surface of living cells. Unlabeled cells were used as a control to set a threshold before the assay, and the percentage change for each group that exceeded the fluorescence intensity threshold was analyzed. MCF-7 cells expressing human full-length B7H3 (1×10^5 cells/well) were incubated with various concentrations of antibodies (3.16-fold serially diluted with 1×DPBS/1% BSA from 50 nM to 0.0005 nM) in a volume of 100 μL/well in a refrigerator set to 4° C. for 1 h. Anti-human B7H3 reference antibody enoblituzumab (MacroGeneics) was used as a positive control. Human IgG1 isotype antibody was used as a negative control. After washing the cells with 1×DPBS/1% BSA, Alexa 647 goat anti-human antibody (diluted in a 1:500 ratio in 1×DPBS/1% BSA) was added. The cells were incubated in a refrigerator set to 4° C. for 0.5 h in the dark. The mean fluorescence intensity (MFI) of the cells was measured by a flow cytometry and analyzed by FlowJo. EC50 values were calculated by four-parameter non-linear regression analysis using GraphPad Prism 7 software.

[1] = test system: MCF-7 cells expressing human full-length B7H3; assay: Internalization test (HCS) on MCF-7; type: cell-based; conditions: MCF-7, HCS
Description: Antibody internalization was determined by operetta CLS (PerkinElmer), a high-content imaging and analysis system that can collect and analyze images of samples at high speed and high sensitivity. MCF-7 cells expressing human full-length B7H3 (1.5×10^4 cells/well) were seeded into a 96-well clear bottom black plate pre-coated with 8 μg/mL poly-D-lysine. After incubation in an incubator set to 37° C., 5% CO2 overnight, various concentrations of the antibodies (3.16-fold serially diluted with 1×DPBS/1% BSA from 50 nM to 0.0005 nM) were incubated in a volume of 100 μL/well in a refrigerator set to 4° C. for 2 h. Anti-human B7H3 reference antibody enoblituzumab (MacroGeneics) was used as a positive control. Human IgG1 isotype antibody was used as a negative control. After washing the cells with 1×DPBS/1% BSA, Alexa 647 goat anti-human antibody (diluted in a 1:500 ratio in 1×DPBS/1% BSA) was added. The cells were incubated in a refrigerator set to 4° C. for 1 h in the dark. The cells were then washed once and resuspended in 1×DPBS/1% BSA at 37° C. for 2 h. […] The mean fluorescence intensity (MFI) of the cells was measured and analyzed by operetta CLS. EC50 values were calculated by four-parameter non-linear regression analysis using GraphPad Prism 7 software.

cynomolgus monkey B7H3 [2] = assay: SPR binding affinity for cynomolgus monkey B7H3 (Biacore 8K); conditions: analyte cynomolgus monkey B7H3
Description: The affinity of antibodies for cynomolgus monkey B7H3 was determined using surface plasmon resonance (SPR). The affinity of antibodies for cynomolgus monkey B7H3 was determined by Biacore 8K. An activator was prepared by mixing 400 mM EDC and 100 mM NHS (GE) immediately prior to injection into the channel. The CM5 sensor chip was activated for 420 seconds with the activator. Goat anti-human Fe IgG (30 μg/mL in 10 mM NaAc, pH 4.5) was then injected into the channel at a flow rate of 10 μL/min for 420 seconds. The chip was deactivated by 1 M ethanolamine hydrochloric acid. The antibodies diluted in running buffer (1×HBS-EP+) were injected into the channel at a flow rate of 10 μL/min for 30 seconds. […] Glycine (10 mM, pH 1.5) was injected as regeneration buffer after the dissociation phase.
The sensorgrams for the reference channel and the buffer channel were subtracted from the test sensorgrams. The experimental data for 6 analyte concentrations (50 nM, 25 nM, 12.5 nM, 6.25 nM, 3.125 nM, and 1.563 nM) were fitted with a 1:1 binding model. The molecular weight of the cynomolgus monkey B7H3 used in the calculation was 49 kDa.
(§1) The experimental data were fitted by a 1:1 binding model bundled with the Biacore 8K evaluation software.

cynomolgus monkey B7H3 [3] = assay: FACS binding to cynomolgus monkey B7H3-transfected stable cell pool
Description: A cell pool expressing cynomolgus monkey B7H3 was generated. Briefly, FlipinCHO cells were transfected with a pcDNA5/pOG44 expression vector containing full-length cynomolgus monkey B7H3 using Lipofectamine 2000 transfection kit (Invitrogen, 11668027) according to the manufacturer's protocol. At 48 h post-transfection, the cells were subcultured into a selective medium (F12 containing 10% FBS and 600 μg/mL hygromycin B) in a T75 flask. After two or three passages of selection, a cell pool stably and highly expressing cynomolgus monkey B7H3 (WBP3XX088-FlpinCHO.cProl.pool) was obtained by hygromycin B selection and BD FACSMelody™ cell sorting.
FACS was used to detect the binding of antibodies to cynomolgus monkey B7H3. FlpinCHO cells were transfected with cynomolgus monkey B7H3 (W3XX088-FlpinCHO.cProl.pool) (1×10^5 cells/well), and the transfected cells were incubated with various concentrations of antibodies (3.16-fold serially diluted with 1×DPBS/1% BSA from 50 nM to 0.0005 nM) in a volume of 100 μL/well in a refrigerator set to 4° C. for 1 h. Anti-human B7H3 reference antibody enoblituzumab (MacroGeneics) was used as a positive control. […] The mean fluorescence intensity (MFI) of the cells was measured by a flow cytometry and analyzed by FlowJo. EC50 values were calculated by four-parameter non-linear regression analysis using GraphPad Prism 7 software.

human 2IgB7H3 = molecular target: T2, human 2IgB7H3 (Homo sapiens, UniProt Q5ZPR3); assay: SPR binding affinity for human 2IgB7H3 (Biacore 8K); conditions: analyte human 2IgB7H3
T2 construct: His tag; purchased ACRO (ACROBiosystems) B73-H52E2
T2 sequence (Q5ZPR3 29-316 isoform Q5ZPR3-2 limits assumed): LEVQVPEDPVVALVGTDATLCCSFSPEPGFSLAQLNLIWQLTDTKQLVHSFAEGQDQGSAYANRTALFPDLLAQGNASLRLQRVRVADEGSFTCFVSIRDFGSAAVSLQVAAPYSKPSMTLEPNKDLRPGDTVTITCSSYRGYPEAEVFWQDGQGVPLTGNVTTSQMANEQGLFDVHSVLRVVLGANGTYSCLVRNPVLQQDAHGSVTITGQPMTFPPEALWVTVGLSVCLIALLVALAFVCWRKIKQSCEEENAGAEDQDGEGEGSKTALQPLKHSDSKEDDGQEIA
Description: The affinity of antibodies for human 2IgB7H3 was determined using surface plasmon resonance (SPR). The affinity of antibodies for human 2IgB7H3 was determined by Biacore 8K. An activator was prepared by mixing 400 mM EDC and 100 mM NHS (GE) immediately prior to injection into the channel. The CM5 sensor chip was activated for 420 seconds with the activator. Goat anti-human Fc IgG (30 μg/mL in 10 mM NaAc, pH 4.5) was then injected into the channel at a flow rate of 10 μL/min for 420 seconds. The chip was deactivated by 1 M ethanolamine hydrochloric acid. The antibodies diluted in running buffer (1×HBS-EP+) were injected into the channel at a flow rate of 10 μL/min for 30 seconds. Seven concentrations (500 nM, 250 nM, 125 nM, 62.5 nM, 31.25 nM, 15.625 nM, and 7.813 nM) of analyte human 2IgB7H3 were injected sequentially into the channel at a flow rate of 30 μL/min for an association phase of 120 seconds, followed by dissociation of 300 seconds. Glycine (10 mM, pH 1.5) was injected as regeneration buffer after the dissociation phase.
The sensorgrams for the reference channel and the buffer channel were subtracted from the test sensorgrams. The experimental data were fitted with a 1:1 binding model. The molecular weight of the human 2IgB7H3 used in the calculation was 25.2 kDa.
as §1

human 4IgB7H3 = molecular target: T3, human 4IgB7H3 (Homo sapiens, UniProt Q5ZPR3); assay: SPR binding affinity for human 4IgB7H3 (Biacore 8K); conditions: analyte human 4IgB7H3
T3 construct: Uniprot ID: Q5ZPR3, amino acids 29-461; 6xHis (C); made in house; host or cells: Expi293F
T3 sequence (Q5ZPR3 29-461): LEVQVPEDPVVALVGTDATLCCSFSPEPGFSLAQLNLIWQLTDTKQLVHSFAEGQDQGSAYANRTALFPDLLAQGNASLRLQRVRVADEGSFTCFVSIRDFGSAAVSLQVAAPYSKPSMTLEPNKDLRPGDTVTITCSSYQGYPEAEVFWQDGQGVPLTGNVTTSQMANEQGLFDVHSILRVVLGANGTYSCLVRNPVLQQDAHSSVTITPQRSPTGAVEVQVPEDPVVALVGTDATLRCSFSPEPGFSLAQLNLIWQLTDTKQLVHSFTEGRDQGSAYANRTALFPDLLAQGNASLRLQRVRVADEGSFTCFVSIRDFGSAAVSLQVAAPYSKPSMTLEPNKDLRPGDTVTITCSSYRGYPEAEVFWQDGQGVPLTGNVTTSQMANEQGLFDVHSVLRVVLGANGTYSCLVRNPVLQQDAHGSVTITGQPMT
Description: The affinity of antibodies for human 4IgB7H3 was determined using surface plasmon resonance (SPR). The affinity of antibodies for human 4IgB7H3 was determined by Biacore 8K. An activator was prepared by mixing 400 mM EDC and 100 mM NHS (GE) immediately prior to injection into the channel. The CM5 sensor chip was activated for 420 seconds with the activator. Goat anti-human Fc IgG (30 μg/mL in 10 mM NaAc, pH 4.5) was then injected into the channel at a flow rate of 10 μL/min for 420 seconds. The chip was deactivated by 1 M ethanolamine hydrochloric acid. The antibodies diluted in running buffer (1×HBS-EP+) were injected into the channel at a flow rate of 10 μL/min for 30 seconds. Seven concentrations (100 nM, 50 nM, 25 nM, 12.5 nM, 6.25 nM, […], and 1.563 nM) of analyte human 4IgB7H3 were injected sequentially into the channel at a flow rate of 30 μL/min for an association phase of 180 seconds, followed by dissociation of 3600 seconds. Glycine (10 mM, pH 1.5) was injected as regeneration buffer after the dissociation phase.
The sensorgrams for the reference channel and the buffer channel were subtracted from the test sensorgrams. The experimental data were fitted with a 1:1 binding model. The molecular weight of the human 4IgB7H3 used in the calculation was 47.8 kDa.
as §1

Maximum MFI (human B7H3): 4644
ka (cynomolgus monkey B7H3 [2]): 185000 M⁻¹ s⁻¹
kd (cynomolgus monkey B7H3 [2]): 8.14e-05 s⁻¹
ka (human 2IgB7H3): 64400 M⁻¹ s⁻¹
kd (human 2IgB7H3): 0.0168 s⁻¹
ka (human 4IgB7H3): 124000 M⁻¹ s⁻¹
kd (human 4IgB7H3): 0.000126 s⁻¹
B1: Enoblituzumab (MacroGenics): anti-B7H3 benchmark antibody, sequences SEQ ID NOs: 117 and 119 of US20120294796A1 (antibody, chains of the INN, looked up)
heavy: EVQLVESGGGLVQPGGSLRLSCAASGFTFSSFGMHWVRQAPGKGLEWVAYISSDSSAIYYADTVKGRFTISRDNAKNSLYLQMNSLRDEDTAVYYCGRGRENIYYGSRLDYWGQGTTVTVSSASTKGPSVFPLAPSSKSTSGGTAALGCLVKDYFPEPVTVSWNSGALTSGVHTFPAVLQSSGLYSLSSVVTVPSSSLGTQTYICNVNHKPSNTKVDKRVEPKSCDKTHTCPPCPAPELVGGPSVFLLPPKPKDTLMISRTPEVTCVVVDVSHEDPEVKFNWYVDGVEVHNAKTKPPEEQYNSTLRVVSVLTVLHQDWLNGKEYKCKVSNKALPAPIEKTISKAKGQPREPQVYTLPPSREEMTKNQVSLTCLVKGFYPSDIAVEWESNGQPENNYKTTPLVLDSDGSFFLYSKLTVDKSRWQQGNVFSCSVMHEALHNHYTQKSLSLSPG
light: DIQLTQSPSFLSASVGDRVTITCKASQNVDTNVAWYQQKPGKAPKALIYSASYRYSGVPSRFSGSGSGTDFTLTISSLQPEDFATYYCQQYNNYPFTFGQGTKLEIKRTVAAPSVFIFPPSDEQLKSGTASVVCLLNNFYPREAKVQWKVDNALQSGNSQESVTEQDSKDSTYSLSSTLTLSKADYEKHKVYACEVTHQGLSSPVTKSFNRGEC
Antibody internalization Maximum MFI [1]: 39777
Maximum MFI (cynomolgus monkey B7H3 [3]): 19700
